Consider five sequences from the supplement of paper PMC5998384.

The subject of data set [1] is HeLa Kyoto. Kind of data set: solubility in G1/S (NP-40 vs SDS abundance) (log2 ratio); higher = more soluble. As to conditions: cell cycle stage: G1/S.
For data set [2], the system named is HeLa Kyoto. Nature of the data set: solubility change mitosis vs G1/S (difference of NP-40 vs SDS log2 ratios) (log2 ratio difference); higher = more soluble in mitosis.
The subject of data set [3] is HeLa Kyoto. Nature of the data set: melting temperature (median over replicates), in situ; higher = more thermally stable.
For data set [4], the system named is HeLa Kyoto. Kind of data set: thermal stability score vs G1/S (z-score of summed log2 fold changes over temperatures); higher = more thermally stable than in G1/S.
[5] abbreviates: cell cycle stage: early G1 (4.5 h after nocodazole release).
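Wherever melting temperature (median over replicates), in situ is given: HeLa Kyoto cells synchronized by double thymidine or nocodazole block, proteins quantified by TMT10plex mass spectrometry, three independent biological replicates.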
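Wherever solubility change mitosis vs G1/S (difference of NP-40 vs SDS log2 ratios) is given: synchronized HeLa Kyoto cells (double thymidine block for G1/S, nocodazole release for mitosis), protein amounts in NP-40 versus SDS lysates quantified by mass spectrometry, three biological replicates.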
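Wherever solubility in G1/S (NP-40 vs SDS abundance) is given: HeLa Kyoto cells arrested at G1/S by double thymidine block, proteins quantified by TMT10plex mass spectrometry in mild NP-40 versus SDS extracts, three biological replicates.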
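Wherever thermal stability score vs G1/S (z-score of summed log2 fold changes over temperatures) is given: synchronized HeLa Kyoto cells, proteins quantified by TMT10plex mass spectrometry, three biological replicates, mitosis taken 0.5 h after nocodazole release, G1/S directly after double thymidine block.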

For the sequence “MPLRLDIKRKLTARSDRVKSVDLHPTEPWMLASLYNGSVCVWNHETQTLVKTFEVCDLPVRAAKFVARKNWVVTGADDMQIRVFNYNTLERVHMFEAHSDYIRCIAVHPTQPFILTSSDDMLIKLWDWDKKWSCSQVFEGHTHYVMQIVINPKDNNQFASASLDRTIKVWQLGSSSPNFTLEGHEKGVNCIDYYSGGDKPYLISGADDRLVKIWDYQNKTCVQTLEGHAQNVSCASFHPELPIIITGSEDGTVRIWHSSTYRLESTLNYGMERVWCVASLRGSNNVALGYDEGSIIVKLGREEPAMSMDANGKIIWAKHSEVQQANLKAMGDAEIKDGERLPLAVKDMGSCEIYPQTIQHNPNGRFVVVCGDGEYIIYTAMALRNKSFGSAQEFAWAHDSSEYAIRESNSIVKIFKNFKEKKSFKPDFGAESIYGGFLLGVRSVNGLAFYDWDNTELIRRIEIQPKHIFWSDSGELVCIATEESFFILKYLSEKVLAAQETHEGVTEDGIEDAFEVLGEIQEIVKTGLWVGDCFIYTSSVNRLNYYVGGEIVTIAHLDRTMYLLGYIPKDNRLYLGDKELNIISYSLLVSVLEYQTAVMRRDFSMADKVLPTIPKEQRTRVAHFLEKQGFKQQALTVSTDPEHRFELALQLGELKIAYQLAVEAESEQKWKQLAELAISKCQFGLAQECLHHAQDYGGLLLLATASGNANMVNKLAEGAERDGKNNVAFMSYFLQGKVDACLELLIRTGRLPEAAFLARTYLPSQVSRVVKLWRENLSKVNQKAAESLADPTEYENLFPGLKEAFVVEEWVKETHADLWPAKQYPLVTPNEERNVMEEGKDFQPSRSTAQQELDGKPASPTPVIVASHTANKEEKSLLELEVDLDNLELEDIDTTDINLDEDILDD [COPB2]”, the “solubility in G1/S (log2)” value in data set [1] was -0.298. Besides, the “solubility change mitosis (log2)” value in data set [2] was -0.0942. In addition, the melting temperature in data set [3] (cell cycle stage: G1/S) is 51.7 °C; in data set [3] (cell cycle stage: mitosis) it was 51.3 °C. Moreover, the thermal stability score was -0.168 in data set [4] (setting [5]) and -0.888 in data set [4] (cell cycle stage: mitosis).

With “MTSRSTARPNGQPQASKICQFKLVLLGESAVGKSSLVLRFVKGQFHEYQESTIGAAFLTQSVCLDDTTVKFEIWDTAGQERYHSLAPMYYRGAQAAIVVYDITNQETFARAKTWVKELQRQASPSIVIALAGNKADLANKRMVEYEEAQAYADDNSLLFMETSAKTAMNVNDLFLAIAKKLPKSEPQNLGGAAGRSRGVDLHEQSQQNKSQCCSN [RAB5B]”, in data set [1], the “solubility in G1/S (log2)” value worked out at 0.23. Besides, the “solubility change mitosis (log2)” value in data set [2] is -0.207. Further, the figures for the melting temperature in data set [3] (cell cycle stage: G1/S) and in data set [3] (cell cycle stage: mitosis) were 57.4 °C and 58.2 °C, respectively. For the same sequence, the thermal stability score is -0.307 in data set [4] (setting [5]) and -2.64 in data set [4] (cell cycle stage: mitosis).

As to “MKKASRSVGSVPKVSAISKTQTAEKIKPENSSSASTGGKLVKPGTAASLSKTKSSDDLLAGMAGGVTVTNGVKGKKSTCPSAAPSASAPAMTTVENKSKISTGTASSTKRSTSTGNKESSSTRERLRERTRLNQSKKLPSAGQGANDMALAKRSRSRTATECDVRMSKSKSDNQISDRAALEAKVKDLLTLAKTKDVEILHLRNELRDMRAQLGINEDHSEGDEKSEKETIMAHQPTDVESTLLQLQEQNTAIREELNQLKNENRMLKDRLNALGFSLEQRLDNSEKLFGYQSLSPEITPGNQSDGGGTLTSSVEGSAPGSVEDLLSQDENTLMDHQHSNSMDNLDSECSEVYQPLTSSDDALDAPSSSESEGIPSIERSRKGSSGNASEVSVACLTERIHQMEENQHSTSEELQATLQELADLQQITQELNSENERLGEEKVILMESLCQQSDKLEHFSRQIEYFRSLLDEHHISYVIDEDVKSGRYMELEQRYMDLAENARFEREQLLGVQQHLSNTLKMAEQDNKEAQEMIGALKERSHHMERIIESEQKGKAALAATLEEYKATVASDQIEMNRLKAQLENEKQKVAELYSIHNSGDKSDIQDLLESVRLDKEKAETLASSLQEDLAHTRNDANRLQDAIAKVEDEYRAFQEEAKKQIEDLNMTLEKLRSDLDEKETERSDMKETIFELEDEVEQHRAVKLHDNLIISDLENTVKKLQDQKHDMEREIKTLHRRLREESAEWRQFQADLQTAVVIANDIKSEAQEEIGDLKRRLHEAQEKNEKLTKELEEIKSRKQEEERGRVYNYMNAVERDLAALRQGMGLSRRSSTSSEPTPTVKTLIKSFDSASQVPNPAAAAIPRTPLSPSPMKTPPAAAVSPMQRHSISGPISTSKPLTALSDKRPNYGEIPVQEHLLRTSSASRPASLPRVPAMESAKTLSVSRRSSEEVKRDISAQEGASPASLMAMGTTSPQLSLSSSPTASVTPTTRSRIREERKDPLSALAREYGGSKRNALLKWCQKKTEGYQNIDITNFSSSWNDGLAFCALLHTYLPAHIPYQELNSQDKRRNFMLAFQAAESVGIKSTLDINEMVRTERPDWQNVMLYVTAIYKYFET [SPECC1L]”, the “solubility in G1/S (log2)” value in data set [1] is -0.183. Also, in data set [2], the “solubility change mitosis (log2)” value was 0.448. The melting temperature in data set [3] (cell cycle stage: G1/S) came out at 50.8 °C; in data set [3] (cell cycle stage: mitosis), 50.7 °C. Moreover, the thermal stability score in data set [4] (setting [5]) was 0.147; in data set [4] (cell cycle stage: mitosis), -0.333.

With “MFRFMRDVEPEDPMFLMDPFAIHRQHMSRMLSGGFGYSPFLSITDGNMPGTRPASRRMQQAGAVSPFGMLGMSGGFMDMFGMMNDMIGNMEHMTAGGNCQTFSSSTVISYSNTGDGAPKVYQETSEMRSAPGGIRETRRTVRDSDSGLEQMSIGHHIRDRAHILQRSRNHRTGDQEERQDYINLDESEAAAFDDEWRRETSRFRQQRPLEFRRLESSGAGGRRAEGPPRLAIQGPEDSPSRQSRRYDW [MLF2]”, the “solubility in G1/S (log2)” value in data set [1] amounted to 0.236. Further, the “solubility change mitosis (log2)” value in data set [2] is -0.0421. The same sequence showed a melting temperature in data set [3] (cell cycle stage: G1/S) of 46.2 °C. The thermal stability score in data set [4] (setting [5]) stood at 1.43; in data set [4] (cell cycle stage: mitosis), 5.61.

As for “MALSRGLPRELAEAVAGGRVLVVGAGGIGCELLKNLVLTGFSHIDLIDLDTIDVSNLNRQFLFQKKHVGRSKAQVAKESVLQFYPKANIVAYHDSIMNPDYNVEFFRQFILVMNALDNRAARNHVNRMCLAADVPLIESGTAGYLGQVTTIKKGVTECYECHPKPTQRTFPGCTIRNTPSEPIHCIVWAKYLFNQLFGEEDADQEVSPDRADPEAAWEPTEAEARARASNEDGDIKRISTKEWAKSTGYDPVKLFTKLFKDDIRYLLTMDKLWRKRKPPVPLDWAEVQSQGEETNASDQQNEPQLGLKDQQVLDVKSYARLFSKSIETLRVHLAEKGDGAELIWDKDDPSAMDFVTSAANLRMHIFSMNMKSRFDIKSMAGNIIPAIATTNAVIAGLIVLEGLKILSGKIDQCRTIFLNKQPNPRKKLLVPCALDPPNPNCYVCASKPEVTVRLNVHKVTVLTLQDKIVKEKFAMVAPDVQIEDGKGTILISSEEGETEANNHKKLSEFGIRNGSRLQADDFLQDYTLLINILHSEDLGKDVEFEVVGDAPEKVGPKQAEDAAKSITNGSDDGAQPSTSTAQEQDDVLIVDSDEEDSSNNADVSEEERSRKRKLDEKENLSAKRSRIEQKEELDDVIALD [UBA2]”, the “solubility in G1/S (log2)” value in data set [1] came to 0.146. Also, the “solubility change mitosis (log2)” value in data set [2] is -0.204. Further, the melting temperature in data set [3] (cell cycle stage: G1/S) was 52.2 °C; in data set [3] (cell cycle stage: mitosis), 52 °C. Also, the thermal stability score in data set [4] (setting [5]) is -0.2; in data set [4] (cell cycle stage: mitosis), 0.883.
